Test results published in article PMC4598862, “Proteasome Activation is Mediated via a Functional Switch of the Rpt6 C-terminal Tail Following Chaperone-dependent Assembly” (Scientific Reports, 2015).

Assays:
[1] = molecular target: α2-A79C-HA6 (S. cerevisiae) (UniProt P23639); test: cross-linking; as a8 but with 2 mM ADP (0.5 mM ADP in the washes)
α3-T81C-HA6 = molecular target: T1, α3-T81C-HA6 (S. cerevisiae, UniProt P23638 1-258, T81C); test: cross-linking; proteasomes immunoprecipitated from yeast lysate on HA-agarose via the 6xHA tag of the α subunit, 1 mM ATP; engineered cysteine pair cross-linked with 0.1 mM BMOE, 1 h at 4 °C; SDS-PAGE, immunoblot for the Rpt protein and HA; wild-type and nas6Δ cells (no influence of Nas6); Rpt3-α2 also in rpt6-Δ1 cells (decreased); details: partners not purified
T1 construct: CP subunit α3, entire open reading frame with the cysteine substitution; also called α3^HA; source: expressed from the chromosomal locus in S. cerevisiae, immunoprecipitated from lysate on HA-agarose beads; not shown: 6xHA, C-terminal, kept
T1 sequence (looked up): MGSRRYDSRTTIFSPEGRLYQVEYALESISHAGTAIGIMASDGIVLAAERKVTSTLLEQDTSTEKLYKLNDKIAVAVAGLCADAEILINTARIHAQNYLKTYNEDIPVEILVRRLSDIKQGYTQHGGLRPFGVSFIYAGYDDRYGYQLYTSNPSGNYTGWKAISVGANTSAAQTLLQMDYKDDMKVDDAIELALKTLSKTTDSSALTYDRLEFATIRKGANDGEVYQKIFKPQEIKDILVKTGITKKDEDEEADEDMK

B1: Rpt3-K428C (natural protein)
chain: MEELGIVTPVEKAVEEKPAVKSYASLLAQLNGTVNNNSALSNVNSDIYFKLKKLEKEYELLTLQEDYIKDEQRHLKRELKRAQEEVKRIQSVPLVIGQFLEPIDQNTGIVSSTTGMSYVVRILSTLDRELLKPSMSVALHRHSNALVDILPPDSDSSISVMGENEKPDVTYADVGGLDMQKQEIREAVELPLVQADLYEQIGIDPPRGVLLYGPPGTGKTMLVKAVANSTKAAFIRVNGSEFVHKYLGEGPRMVRDVFRLARENAPSIIFIDEVDSIATKRFDAQTGSDREVQRILIELLTQMDGFDQSTNVKVIMATNRADTLDPALLRPGRLDRKIEFPSLRDRRERRLIFGTIASKMSLAPEADLDSLIIRNDSLSGAVIAAIMQEAGLRAVRKNRYVILQSDLEEAYATQVKTDNTVDKFDFYC
[1]
  percent decrease of crosslinking under ADP relative to ATP: 90%

B2: Rpt6-K405C (natural protein, S. cerevisiae, UniProt Q01939 1-405, looked up)
chain: MTAAVTSSNIVLETHESGIKPYFEQKIQETELKIRSKTENVRRLEAQRNALNDKVRFIKDELRLLQEPGSYVGEVIKIVSDKKVLVKVQPEGKYIVDVAKDINVKDLKASQRVCLRSDSYMLHKVLENKADPLVSLMMVEKVPDSTYDMVGGLTKQIKEIKEVIELPVKHPELFESLGIAQPKGVILYGPPGTGKTLLARAVAHHTDCKFIRVSGAELVQKYIGEGSRMVRELFVMAREHAPSIIFMDEIDSIGSTRVEGSGGGDSEVQRTMLELLNQLDGFETSKNIKIIMATNRLDILDPALLRPGRIDRKIEFPPPSVAARAEILRIHSRKMNLTRGINLRKVAEKMNGCSGADVKGVCTEAGMYALRERRIHVTQEDFELAVGKVMNKNQETAISVAKLFC
notes: RP base ATPase Rpt6; K405 is the last residue of Rpt6; source: expressed from the chromosomal locus in S. cerevisiae, in proteasomes immunoprecipitated from lysate via α3-HA6
α3-T81C-HA6
  percent decrease of the crosslink ratio (ATP) relative to the Rpt3-α2^HA ratio (ATP): 43.6%
